The results in this text go back to US20110250211A1 (INSTITUT PASTEUR, published 2011).

Experiment [1] addresses T1, human glial fibrillary acidic protein (GFAP) (human, UniProt P14136 1-432).
T1 construct: the endogenous protein in fixed human brain sections in the immunolabelling experiments; also called hGFAP
Put plainly: equilibrium competition ELISA in solution (Friguet et al.). How it is done:
(§1) The binding affinity of VHHs was determined as described by FRIGUET et al. (1985, J Immunol Methods, 77:305-319). Briefly, various concentrations of GFAP were incubated in solution overnight at 4° C. with a known quantity of VHH until equilibrium was reached. The VHH concentration had been determined by preliminary ELISA calibrations. 100 μl of solution was transferred to a well of a microtiter plate previously coated with GFAP and was incubated for 20 min at 4° C. The plates were washed with PBS-Tween 0.1%. VHHs were detected with rabbit anti-His tag antibodies (eBiosciences, San Diego, Calif.) followed by adding β-galactosidase-conjugated goat anti-rabbit Igs (Biosys, Compiegne, France) and 4-methylumbelliferyl β-D galactoside (Sigma Aldrich, Saint-Quentin Fallavier, France). Fluorescence was read at 460 nm, after excitation at 355 nm. KD was estimated from the slope of the regression curve obtained by plotting the reciprocal of the fraction of bound antibody versus the reciprocal of the molar concentration of antigen.
(In general: ELISA stands for enzyme-linked immunosorbent assay.)

Experiment [2] has as its target T2, murine glial fibrillary acidic protein (GFAP) (mouse, UniProt P03995 1-430).
T2 construct: Endogenous protein of brain extracts, brain sections or live brain; also called GFAP in murine brain extracts; GFAP in mouse astrocytes
The experiment in a line: Western blot of murine brain extracts. Here is the method: Murine brain extracts were electrophoresed, immunoblotted and incubated with the VHH domains VHH-A10, -B8, -E3 and -E9.
Murine brain proteins (300 mg) were extracted in a potter with 600 μl of NuPage LDS sample buffer (Invitrogen) and kept for […] at 70° C. An aliquot was diluted 1:10 (v/v) with the same sample buffer then treated at 70° C. for 10 min. Following separation by polyacrylamide gel electrophoresis (PAGE) using NuPAGE Novex 4-12% Bis-tris gel (Invitrogen), semi-dry transfer onto Hybond-C (Amersham) and western blotting were carried out using the Xcell II blot module (Invitrogen). Prior to the immunochemical reaction, membranes were blocked in a 4% skimmed milk solution. […] Finally, peroxidase activity was visualized using a chemiluminescent kit (Amersham).
On the technique in general: In western blotting, separated proteins are transferred to a membrane and probed.

For experiment [3], the target named is T1, human glial fibrillary acidic protein …. Put plainly: competition ELISA (Friguet) after heating 15 min at 75 C and cooling 20 min at 4 C. Here is the method: as §1
The heat denaturation of VHH-E9 was adapted to the method described in OLICHON et al. (2007, BMC Biotechnol., 7:7). VHHs are re-suspended in PBS/NaCl 300 mM and are heated for 15 minutes at 75° C. then cooled down at 4° C. for 20 minutes. The binding affinity of VHHs was determined by ELISA as described in Example 1 above.

Experiment [4] has the same target. Put plainly: equilibrium competition ELISA in solution (Friguet et al.), GFAP-coated plate. Here is the method:
as §1

Experiment [5] shares this target. The experiment in a line: competition ELISA (Friguet) as in Example 1. Here is the method: as §1
The target is the same in experiment [6]. The experiment in a line: immunohistochemistry on human brain paraffin sections. How it is done:
Immunostaining of human brain tissue was performed on 5 μm thick paraffin sections. Sections were de-paraffinized in xylene, rehydrated through ethanol (100%, 96%, and 90%) and finally brought to water. They were incubated with 3% hydrogen peroxyde and 20% methanol, to quench for endogenous peroxydases, and washed in water. Non-specific binding was blocked by incubating the sections for 10 minutes in 2% bovine serum albumin in TBS plus 0.5% Tween.
The distribution of VHH-specific immunoreactivity in mouse and human brains sections were examined after aldehyde fixation and membranes permeabilization, using standard procedure for immunostaining. Immunohistochemistry experiments were performed with VHH-A10 (SEQ ID NO: 5) or VHH domain of SEQ ID NO: 3 fused in frame with the Ig CH2 domain and the His tag (SEQ ID NO: 29) were both used. With this construction, the signal could be amplified by using rabbit anti-alpaca Ig polyclonal antibodies as secondary antibodies, in turn labelled by an anti-rabbit goat polyclonal antibody. As previously reported (LAFAYE et al, 1995, above-cited), the results obtained were similar with the His-tagged antibody.

Experiment [7] deals with T2, murine glial fibrillary acidic protein …. The experiment in a line: immunohistochemistry on fixed, permeabilized brain sections.

Substitutions are numbered along the chain they refer to.

T2 sequence (P03995 whole entry): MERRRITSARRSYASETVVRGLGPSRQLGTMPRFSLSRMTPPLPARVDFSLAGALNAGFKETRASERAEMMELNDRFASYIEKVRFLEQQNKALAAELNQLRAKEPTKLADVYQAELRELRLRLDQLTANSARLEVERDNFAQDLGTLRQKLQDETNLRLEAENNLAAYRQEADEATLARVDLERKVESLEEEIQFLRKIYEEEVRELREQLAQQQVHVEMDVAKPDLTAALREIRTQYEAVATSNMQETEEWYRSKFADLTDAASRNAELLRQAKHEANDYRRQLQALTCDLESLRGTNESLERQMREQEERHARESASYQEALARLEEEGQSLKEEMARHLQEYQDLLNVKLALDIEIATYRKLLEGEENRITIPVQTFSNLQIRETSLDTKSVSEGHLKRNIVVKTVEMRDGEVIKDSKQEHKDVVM
T1 sequence (P14136 whole entry): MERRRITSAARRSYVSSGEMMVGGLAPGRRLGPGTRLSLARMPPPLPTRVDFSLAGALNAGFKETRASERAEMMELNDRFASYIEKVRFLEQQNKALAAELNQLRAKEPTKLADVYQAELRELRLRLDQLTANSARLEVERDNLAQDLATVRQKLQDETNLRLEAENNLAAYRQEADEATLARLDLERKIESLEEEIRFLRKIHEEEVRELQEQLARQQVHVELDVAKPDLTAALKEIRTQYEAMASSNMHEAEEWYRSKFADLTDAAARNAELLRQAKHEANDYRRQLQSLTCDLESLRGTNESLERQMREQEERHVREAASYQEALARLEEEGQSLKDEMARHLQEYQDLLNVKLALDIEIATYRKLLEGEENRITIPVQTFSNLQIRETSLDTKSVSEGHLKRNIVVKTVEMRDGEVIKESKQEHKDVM

B1: VHH-B8 (VHH)
VHH: DVQLQVSGGGSVQPGGSLRLSCAAPGFTFSNYAMYWLRQAPGKGIEWVSRIGPGGSHTEYADSVKGRFAISRDNAKNTLSLQMNSLKPEDTAAYYCAITQQGSGRGRGTQVTVSSAAASLSTELEFGSELIPISMADVQLQVSGGGSVQPGGSLRLSCAASGFTFSNYAMYWLRQAPGKGIEWVSRIGPGGSHTEYADSVKGRFTISRDNAKNTLSLQMNSLKPEDTAVYYCAITQQGSGRGRGTQVTVSSAAALEHHHHHH
notes: One polypeptide entry
For orientation: Kd means a measure of binding affinity in units of concentration. Higher therefore signals a looser complex. Molecule B1 came in with a dissociation constant Kd in experiment [1] of 5.2 nM. In experiment [2], the binding result is “binds”.

B2: VHH-E9 (VHH)
VHH: DVQLQVSGGGSVQPGGSLRLSCAASGFTFSNYAMYWLRQAPGKGIEWVSRIGPGGSHTEYADSVKGRFTISRDNAKNTLSLQMNSLKPEDTAVYYCAITQQGSGRGQGTQVTVSS
notes: Alpaca VHH with C-terminal His tag; also called anti-GFAP VHH-E9; native VHH-E9
As for B2, the Kd was found to be 3.8 nM in experiment [3] and 5.6 nM in experiment [4]. Also, the binding result in experiment [2] is given as “binds”.

B3: VHH-E3 (VHH)
VHH: B2 VHH with S25P, T69A, V93A, Q107R
notes: Alpaca VHH with C-terminal His tag; also called anti-GFAP VHH-E3
As to B3, the binding result in experiment [2] is recorded as “binds”.

B4: VHH-A10 (VHH)
VHH: DVQLRASGGGLVQPGGSLRLSCAASGFTFSNYAMYWLRQAPGKGIEWVSRIGPGGSHTEYADSVKGRFTISRDNAKNTLSLQMNSLKPEDTAVYYCAITQQGSGRGQETQVTVSSAAALEHHHHHH
notes: Alpaca VHH with C-terminal His tag, expressed in the E. coli periplasm from pET22; also called anti-GFAP VHH-A10; VHH-His
As to B4, the dissociation constant Kd in experiment [4] is 3.1 nM. In experiment [2], the binding result is on record as “binds”.

B5: VHH-E9 SS-free (VHH)
VHH: B4 VHH with R5Q, A6V, L11S, C22S, C96S, E108G
notes: also called cysteine-free derivative of VHH E9
B5: in experiment [5], binding was put at a Kd of 12 nM and the “fold reduction of affinity against native VHH-E9” value stood at 2 fold.

B6: VHH domain of SEQ ID NO: 3 fused in frame with the Ig CH2 domain and the His tag (VHH)
chain: DVQLRASGGGLVQPGGSLRLSCAASGFTFSNYAMYWLRQAPGKGIEWVSRIGPGGSHTEYADSVKGRFTISRDNAKNTLSLQMNSLKPEDTAVYYCAITQQGSGRGQETQVTVSSAAAAPELLGGPSVFIFPPKPKDVLSISGRPEVTCVVVDVGQEDPEVSFNWYIDGAEVRTANTRPKEEQFNSTYRVVSVLPIQHQDWLTGKEFKCKVNNKALPAPIEKTISKAKLEHHHHHH
notes: the sentence could be read otherwise; also called VHH-A10 fused with the CH2 domain
On to B6, for which the binding result in experiment [6] and in experiment [7] was “binds” each time.
